The nature of this data set: label from the status in PepcDB records.

These results are taken from a protein production outcome set (Wang et al. 2014).

As to “MDTFNYQNFYNQEYYLNMVPGIPYDREAHGGHWLRFFNTVADRLINYVSPTSVLDVGCAKGFLLEAFYNRGILVHGFDYSEYAISCVREDLKPFAFVASAANSNAFLEKQDSYDLITCIEVVEHMPRDEAWLAIKNMCQSAKSIFFSSTSDDFAEPTHLTVLPRIYWLETFLSFGFVPDYKFDIHDLIPHGILLRKIDDNLTAFKMLIEVNETNLEVIKQQKIDIEKLNSEKVNLENKLQQTQTELERSHSQLQQTQTELERSHSQLQQTQTELERSHSQLQQTQTELERSHSQLQQTQTELERSHSQLHQTQTELERSQSQLQQTQTELERSQSQLQQIQMALTLPQSQLYQMQTELEHWKNLVDWMEGSRFWKLRALCLSLKKKIINFPIIKLDFGSLPVFRKNNYPIFVKRTGKLIKNQIMSFRTQNDFADEILAGVLQSFAESPEYSQWIKDYEAKNDELKEQRINAASFPYQPVLSIILPVYKLPLTVLQETINSVIQQTYSNWELCIAFADIDNYQTIDYLKTLSLQEKRIKLKVMAENKGISGNSNVSLNMASGEFVALLDHDDLLAPFAFYEVISELNKQPDLDFIYSDKDCISANSMVRSRLLLKPEWSPEILYSANYLTHLCIARRTLLEKIGGFRPETDGAQDWDLFLRITENTSRIARINSVLYHWRIIQGSTSLGIDSKPYALEGQLRSIQDHLTRTKLPATVSPHPESGFRLEWQASSAEVSIYIDGDVSWDSLSACIHAVSEFADPKLHKATIVLAEHTYTSKATERENLITAVNLPIDWLPIKEGDSKLATLANTIKQDKTDVVVFVSGLVKKFTEGWIQELSGWVLNHPDIGFVSSLVLTDNNLVVEAGLVVDQYNNGSPLMRGNFLYSWDIFGGALWYRNCSASSPWSIAFSYKNYLEGGGLPSNSPSLSHSMIKLCQAIRVNNKRGLVNPHARAFLQDLPKNDIPEFDDSLGNDPYFHPAFSSVVPLKLRVKNGKKN”, the protein production result was “failed”.

Consider “MDTIRSIFIIWKDDRMSFLNNSIIYHIAIILYACSISLYFIDYFQSNRKANRFAFWLLSIVWVLHSIFMLLRATDSETNPLLTLLSGIYFYVWLLITMSLVINRFMRIDFLVFFTNVVAFGVSAFSIFTPLGKMSPVLAEQLVSELVYVHVGMAIISYATFTVSFIFSIMYLLQYRLLKKKKWNARLRRLGNLPKLESMSYGLNLFSVPFFLLAILLGCIWGYTKLDNFHWYDTKVIGSFVVLFVYCAGLYLRAADVLQGKKIVQWNIGAFLVMLINIFLLSSLSNFHFWYL”, for which the protein production entry is “failed”.

On to “MDTKHFLPLDFSTQVNSSLTSPTGRGSMAAPSLHPSLGPGIGSPGQLHSPISTLSSPINGMGPPFSVISSPMGPHSMSVPTTPTLGFSTGSPQLSSPMNPVSSSEDIKPPLGLNGVLKVPAHPSGNMASFTKHICAICGDRSSGKHYGVYSCEGCKGFFKRTVRKDLTYTCRDNKDCLIDKRQRNRCQYCRYQKCLAMGMKREAVQEERQRGKDRNENEVESTSSANEDMPVERILEAELAVEPKTETYVEANMGLNPSSPNDPVTNICQAADKQLFTLVEWAKRIPHFSELPLDDQVILLRAGWNELLIASFSHRSIAVKDGILLATGLHVHRNSAHSAGVGAIFDRVLTELVSKMRDMQMDKTELGCLRAIVLFNPDSKGLSNPAEVEALREKVYASLEAYCKHKYPEQPGRFAKLLLRLPALRSIGLKCLEHLFFFKLIGDTPIDTFLMEMLEAPHQMT”, for which the protein production entry is recorded as “failed”.

Consider “MDTQTVAAYDTLAETFAREWREQPAPDDLYALLRRMFKAGGDTVDIGCGAGREVAWLNANGYPAVGYDASAGLLEAARTQYPGLSFRRAMLPELVGIAEGAFDNVVCETVIMHLPPAQIGAAVRRLLALLRPGGTLYLSWRVTPEADQRDGRGRLYTAFDAAGVREALAGAQVLFDEVAVSQSSGLEHHHHHH”, for which the protein production entry is on record as “not failed”.

Regarding “MDTTAVLLKGPKDLDVDTLQLHVPGDGDLVVEIEHSGISTGTEKLFWSGEMPPFPGMGYPLVPGYEAVGEVVEADRATGFKVGERVFVPGANCYDGAFGLFGGAASRVVTASDRVTRIDAGHGASGALLALAATARHSMAGLNKSVPDLIVGHGVLGRLLARLTIAAGAPAPMVWEIDESRRKGAQGYEVIAPEDDPRRDYTSVYDASGSVEVLNDLVGRLAKGGEIVLAGFYTTAISFAFPPAFMKEARFRVAAEWTHDDLAATRALVEGGSLSLENLITHQASHLNARAAYAQAFTDPDCLKMILNWKDVA”, the protein production result is “failed”.

Regarding “MDTVPPRTYNNSNFPEGLPAVSLSDEERARQQRWTPLRVTIWILISAIAGLGWWMLAVRRGETVNGIWFVFAAIGSYFIGYRFYAKYIQDKLVHPDDSRATPAEYDYNGRDFVPTDRRILYGHHFAAIAGAGPLVGPVLSAQMGYLPSTIWIIVGVILAGAVQDYLVLVISMRRGGRSLGQMAREELGRFGGIAALIATLTIMLIIVAILAMVVVNSLAASSWGVWSVGLTIPIALLMGFYLRYLRPGKVFEVSIIGIVLLVLAIASGAWIENTAVASALHLSKPFLAWAIIIYGFIAAVLPVWMLLAPRDYLSTFMKVGVIAMLAISIVIVRPVINVPAMTVYATNGAGPVFSGKLFPFLFVTIACGALSGFHATISSGTTPKLIEKESQARLIGYGGMLMESFVAIMALVAALSVDRGIYFAMNSPAGATGNTVKSAIAYVNSLGLSGVHANANTLTTTAKLVGETSIVSRTGGAPTLAVGLATIMHKIFGGEAMMSFWYHFAIMFEALFILTSVDAGTRVARFMLSDALGNFWPRLKDHSWKVGSWLTTAIMVAGWGSILLMGVTDPLGGINTLFPLFGIANQLLAAVALSICLVIFARAGHTWRLLIIFVPMLFTAIITVYGSWLKIFSPDPKLGYWANHMTYKRAIADGKTSLGQAKNIDEMHTVVGNTAIQGTMSIIFVVCALIVMIVACIRTVQALRGRNIIDTEDPAKPSKIFAPSGLMPTKAERDLQVEWDAFYEEHPELDLESVHKDKEHA”, the protein production entry is “failed”.

In the case of “MDTVTKLSIIIPAWNEETGIARTLETLLALTAGRGDTEIIVSVSGNDRTKAIARTFPVVVCHSEKGRAVQMNAGAKLATGSILYFLHADTTPPPSFCDDIFSAIERGARAGCFRMTFDDPDWLMQLYGWFTQFPLPVCRGGDQSLFITKELFGQIGGFDERLQIMEDIEIIDRLQRHAGFHILDSTVTTSARKYHTNGTVRLQAIFGTIHLMYALGFSQKNIVAFYRDSIRLEHHHHHH”, the protein production entry is “not failed”.

Consider “MDTVTLARAFFGSSLAFHIIFATLGVGLSLMIFISEILYHWKKDSDYAIMAKRWTKAFAILLGVAIPTGTIVGVQISLLWPGFAKIVGQVISVPFQIEIFAFFLEALFMSIYVYAADKLPPFMRLISLFFVMLGATASAVLITSANTWMNTPAGFSMNPDGSVFNVDPWKAFFNPSFGTSAFHVVITAYATGAAVIASIAGFKLLKKNLSTREIAYHKKGLLLGLVVTFITGATMWLSGHESAIALHKHSPEKLASAEALFETTSHAPLSIGGVVDPNTLELNYALEIPNMLSLLVGLDPSTVVKGLKEFPQETWPPFYTHTLFNLMVGTAAFTFAVAAIALLYWYFVYRKKGTELPKWLLWGAAACGPIMMLGIEFGWIFSCSGRQPWTIYGMQRTVDASTRADFVGPLFVLFIILYIGLAILTVIVLRTFFRRHPLKNDLQHQGGDSHA”, for which the protein production entry is on record as “failed”.

For the sequence “MDVAIELTTRVGVLLFFIAICHVIAQRVRLPDPIILTAAGVTIGFGYVALEHVAPAFAANTIAPFLSPAMPPEAYLWIFLPPILFQAAIEVDSSGFVADLGPILLLAIGAVVAATLSVGAVAYLTSGQGLIACLLLGAIVSTTDPSTVIGLFQSSGAPARLIRLVEGESLFNDAAAIAITTLLTGVISVMPTHDAAHFPLAQFLLSLLGGCAVGWLVGVVLVFVSGAMRSPPFAEYSLSLALPNLIYPFAERVLHVSGVAAVVCAGLVVGRIMLSRRPASHVKLFRQLWLYQATIASASVLLLATAHVPSLLDDLRMIDVVILLLVLVAAVASRFGILSVSMPMMSRIGICKPLPVSHQLLIAWGGVRGPVTLTLAICLARNQDLAPDTRHFAAAMAAGFVLLNLFFNGLTLKLFARWLGVAAPGGRRPAAIEVD”, the protein production entry was “failed”.

Regarding “MDVEKIPGSVCLVAPHANANPTWPADLAWVKQVLFRMGIKVVATLTHRTPIAEIENIASAETSLLLSHDAGQKAADYLSATFGIEQVCKGIPLEHHHHHH”, the protein production result is recorded as “failed”.

On to “MDVIKISPRGYCYGVVDAMVIAKNASLDKSLPRPIYILGMIVHNKHVTDAFEEEGILTLDGSNRLDILKQVDKGTVIFTAHGVSPEVRRIAEEKGLVAIDATCPDVTKTHNLILEMKEKGYHVIYIGKKGHPEPEGAVGVAPEIVHLVETEEDVKNLDIQSEKLIVTNQTTMSQWDVHDIMELVKEKYPHVEYHQEICLATQVRQEAVSEQAKKADLTIVVGDPKSNNSNRLAQVSEEIAGTKAYRIGDLSELKLEWLKGVNTVAVTAGASTPTPITKEVIRFLEQFDHE”, for which the protein production result is given as “failed”.

Regarding “MDVKKDENSILENMKQEINHSLKEEAQEEEEILKKRISSHPLYGLLLHSHLNCLKVCSGDFDSPEIMNTADDLALSKLSLHPDSSSEATSSELDQFMVLFFFSPCQNIFTQQKTTFHVLLFFPLQINLTFKYSKFILPRKKQ”, the protein production entry was “failed”.

Take “MDVKQTLEKAIALRQNKRYQESNAILVTLCKEHAHDPQILYQCGWSFDVLGLEAQAVPYYEKAIASGLQGKDLAECYLGLGSTFRTLGEYRKAEAVLANGVKQFPNHQALRVFYAMVLYNLGRYEQGVELLLKIIAETSDDETIQSYKQAILFYADKLDETWKALEHHHHHH”: the protein production result is reported as “not failed”.

Turning to “MDVSNKDAKRTDTIILANFDPITKEAKLISIPRDTRVKIGGKSQKINAAYPIGGEKLVKQLVGNILGVKVDYVVKVDYEGFRGIIDAIGGIDMYIEQDMNYDDPGQDLHIHFNKGETVHLDGKKAEEFFRWRKNNDGTGLVNGDVDRIKNQQKFINAVIDKVLSVSTITKIDSIAEILNKNIETNIPLDVTVAYGLKGLETDKNNIKMMTLPGEGKYVGNVSYYIPDEKATKELRSQLNSSNLSGRKNVIPSAARGDLSIKVLNCTKINGLAANVQKQLNENGYDKVDLEHHHHHH”, the protein production result is listed as “not failed”.

Take “MDVSVFLAALGISLLELTEAGAIAAIYHNIYKNNLPFIYAVLGVAIVLIPTFTLGKLIYLVPLNYVLLASAVILFYFGYRLIRSARRSFKGIKKKGGEEKEEGLSVVFTVSAIEGLEASLVILALIPQSYSSAVMGAILASVLVVILTAILKSQVARIRLPHLKFVLSALLFSLGTLWISEVVFDIPDLILPLFFLAYLGINYVIIKI”: the protein production entry is on record as “failed”.

Consider “MDVYHDGACPEVKPVDNFDWSQYHGKWWEVAKYPSPNGKYGKCGWAEYTPEGKSVKVSRYDVIHGKEYFMEGTAYPVGDSKIGKIYHSRTVGGYTKKTVFNVLSTDNKNYIIGYSCRYDEDKKGHWDHVWVLSRSMVLTGEAKTAVENYLIGSPVVDSQKLVYSDFSEAACKVNNSNWSHPQFEK”, for which the protein production result was “not failed”.

With “MDYFLLHGGGNADRQSGGVHRWLAGAIRELGMLVAETSGHDAFLEQIGAVHPEVVFVRFASSPARIDVPEHDQKLGEGTDAIGEATQLVAQLTRLFPGLPLVAVGSASDGRAMLAALRAGVKDFIDVDGAPAEAVRVVRRLLAERASAEPTRRGRVLAILGARPGVGTTTLASNLATLVRRTSGGDVMLLDLGQPLRDGALYLNVPANFHFVEAVRNLRRFDQVFVQTALSRHPNGLAVLPLPVSLAEMRDISFSEALGLLNRLRTFFDLQVVDLGGFNNIDFIAQLVKAADDVMLVTEQSVGAIVSAAELMQELKKREIDRERLHLILSKFDARLSLDAEQIGVRLEIPSVLTVPSRRRALVVASNQGAMLAETHPIDPYVRAIAGIVQTLGYTQPGERAPGVAGWMAGMRARLGERFRRKPTEPAELDLRTTERNAT”, the protein production result is recorded as “failed”.

As to “MDYGMYFFEHVTPYETLVRRMERVIASGKTPFQDYFLFESKGFGKVLILDKDVQSTERDEYIYHETLVHPAMLTHPEPKRVLIVGGGEGATLREVLKHPTVEKAVMVDIDGELVEVAKRHMPEWHQGAFDDPRAVLVIDDARAYLERTEERYDVVIIDLTDPVGEDNPARLLYTVEFYRLVKAHLNPGGVMGMQAGMILLTHHRVHPVVHRTVREAFRYVRSYKNHIPGFFLNFGFLLASDAFDPAAFSEGVIEARIRERNLALRHLTAPYLEAMFVLPKDLLEALEKETMVSTDQNPFYVTPEGEARQAPYKG”, the protein production result is reported as “not failed”.
